T1: human Fcγ receptor IIA, H167 variant (human, UniProt P12318 36-218)
T1 sequence (looked up): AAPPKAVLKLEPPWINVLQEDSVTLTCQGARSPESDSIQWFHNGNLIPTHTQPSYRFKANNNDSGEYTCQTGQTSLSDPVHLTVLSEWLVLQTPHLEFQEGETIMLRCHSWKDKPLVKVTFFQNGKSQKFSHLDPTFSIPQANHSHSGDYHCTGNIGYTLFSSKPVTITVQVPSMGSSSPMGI

T2: human Fcγ receptor IIA, R167 variant (human, UniProt P12318 36-218)
T2 construct: also called Type IIA R167
T2 sequence (looked up): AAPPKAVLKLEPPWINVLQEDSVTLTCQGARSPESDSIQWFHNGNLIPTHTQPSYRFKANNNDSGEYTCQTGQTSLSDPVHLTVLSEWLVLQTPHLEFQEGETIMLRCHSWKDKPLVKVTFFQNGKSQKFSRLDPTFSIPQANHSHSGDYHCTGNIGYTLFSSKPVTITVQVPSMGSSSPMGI

T3: human Fcγ receptor IIB/C (human, UniProt P31994 46-217)
T3 sequence (looked up): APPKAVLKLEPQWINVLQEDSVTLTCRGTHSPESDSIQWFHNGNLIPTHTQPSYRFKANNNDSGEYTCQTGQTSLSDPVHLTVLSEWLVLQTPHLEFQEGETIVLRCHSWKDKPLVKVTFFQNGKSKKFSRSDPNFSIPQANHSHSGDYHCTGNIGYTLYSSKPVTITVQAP


How the values were obtained:
[1] = biological target: T1, human Fcγ receptor IIA, H167 variant; assay: SPR (Biacore T200), construct amine-coupled, Fcγ receptor titrated 375-6000 nM, 1:1 fit
Method: (§1) The Fc region incorporated into anti-PSMA bispecific constructs contained mutations intended to reduce or abolish binding to common human and cynomolgus Fc gamma receptors. SPR experiments were conducted at 25° C. in HBS-EP+ with 0.2% BSA buffer on a Biacore T200 system to evaluate the impact of these mutations on binding. For these experiments, three flow cells of a CM5 sensor chip were immobilized with anti-PSMA bispecifics by standard amine coupling to a response level of ˜2000 RU. A blank immobilization was performed on flow cell #1 for purposes of background signal subtraction. Both human and cynomolgus monkey Fcγ receptors (purchased from R&D Systems) were diluted in HBS-EP+ with 0.2% BSA to 4-6 μM and then flowed as analytes at 30 μL/min for 120 seconds followed by a 240 second dissociation step. No regeneration step was required. Blank-subtracted sensorgrams were visually inspected for binding to each of the Fcγ receptor proteins. […] Attenuated binding to Fcγ receptors IIA (both polymorphic variants) and IIB/C was observed. PSMA01107 and PSMA01108 share the same Fc amino acid sequence and therefore equivalent Fcγ receptor binding behavior was expected.
TSC266 (PSMA×CD3 bispecific antibody) and another protein containing a wild-type IgG1 Fc sequence were also analyzed for comparison. Sensorgrams obtained from kinetic SPR measurements were analyzed by the double subtraction method in the Biacore T200 evaluation software. Kinetic parameters were derived from a one-to-one binding fit model and reported below in Table 8. Both TSC266 and PSMA01107 show reduced binding compared to a wild type IgG1 Fc.

[2] = biological target: T4, Human PSMA ECD-AFH (TSC033), recombinant dimeric PSMA ECD (human, UniProt Q04609 44-750); assay: SPR (Biacore T200), human PSMA dimer ECD 10X His (TSC033), 1:1 fit
T4 construct: SEC-purified dimer; also called HuPSMA-AFH; Avi-His-Human PSMA ECD
T4 sequence (Q04609 other isoform, or with tags, fused parts or gaps): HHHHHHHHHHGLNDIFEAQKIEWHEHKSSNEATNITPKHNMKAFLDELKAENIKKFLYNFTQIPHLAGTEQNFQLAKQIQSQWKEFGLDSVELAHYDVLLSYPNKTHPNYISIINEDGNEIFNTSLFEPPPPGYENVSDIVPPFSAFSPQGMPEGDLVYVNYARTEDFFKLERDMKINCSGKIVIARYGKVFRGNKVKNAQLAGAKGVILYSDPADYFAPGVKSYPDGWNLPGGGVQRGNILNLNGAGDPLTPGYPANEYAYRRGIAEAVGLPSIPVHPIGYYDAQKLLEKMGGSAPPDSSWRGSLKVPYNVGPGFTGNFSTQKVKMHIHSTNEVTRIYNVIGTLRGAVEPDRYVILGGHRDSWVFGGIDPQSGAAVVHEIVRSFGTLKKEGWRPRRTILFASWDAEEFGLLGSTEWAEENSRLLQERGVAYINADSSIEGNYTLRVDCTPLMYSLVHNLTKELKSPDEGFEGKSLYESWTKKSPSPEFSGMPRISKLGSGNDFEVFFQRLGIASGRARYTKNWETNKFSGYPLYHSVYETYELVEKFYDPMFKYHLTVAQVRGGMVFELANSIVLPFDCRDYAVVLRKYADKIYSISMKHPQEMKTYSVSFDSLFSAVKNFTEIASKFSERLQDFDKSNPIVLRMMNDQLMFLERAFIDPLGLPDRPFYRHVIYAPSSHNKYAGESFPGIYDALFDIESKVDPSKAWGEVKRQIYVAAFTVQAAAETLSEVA

[3] = biological target: T5, recombinant human FcRn/b2M complex (human, UniProt P55899 24-297; P61769 21-119, limits assumed); assay: SPR at pH 6.0, hFcRn/b2M amine-coupled, construct 1-81 nM as analyte, steady-state affinity model
T5 construct: also called hFcRn/b2M; neonatal Fc receptor
Method: Recombinant FcRn/b2M protein was generated via transient transfection of HEK-293 cells with a bi-cistronic vector containing the genes for both FcRn and […]. The complex was purified using IMAC chromatography and subsequently buffer exchanged into PBS buffer after verifying purity of the IMAC eluate by analytical SEC. Purified hFcRn/b2M at 5 μg/ml in 10 mM sodium acetate (pH 5.0) was immobilized on a CM5 chip by direct amine coupling chemistry to a level of ˜400 RU. A reference flow cell was left blank.
Different concentrations of the Fc variant protein (1-81 nM by 3-fold dilutions in HBS-EP+ with 0.2% BSA running buffer at pH 6.0) including running buffer as blank were injected in randomized order at 30 μL/min for 180 seconds followed by a 180 second dissociation period. Optimal regeneration was achieved by two injections of HBS-EP+ with 0.2% BSA at pH 7.5 at a flow rate of […] for 30 seconds followed by running buffer stabilization for 1 minute.
Sensorgrams obtained from kinetic SPR measurements were analyzed by the double subtraction method. […] Buffer reference was subtracted from analyte binding responses, and the final double-referenced data were analyzed with Biacore T200 Evaluation software (2.0, GE), globally fitting data to derive kinetic parameters. […]

[4] = biological target: T2, human Fcγ receptor IIA, R167 variant; assay: SPR (Biacore T200), construct amine-coupled, Fcγ receptor at 4-6 µM as analyte
Method: as §1

[5] = biological target: T1, human Fcγ receptor IIA, H167 variant; assay: as above
Method: as §1

[6] = biological target: T3, human Fcγ receptor IIB/C; assay: as above
Method: as §1

| Kd [1] [nM] | Kd [2] [nM] | Kd [3] [nM] | binding result [4] | binding result [5] | binding result [6] | Binder |
| --- | --- | --- | --- | --- | --- | --- |
| 20000 | – | – | – | – | – | TSC266 Anti PSMA scFv x Anti CD3 scFv ADAPTIR (bispecific antibody, The anti-PSMA domain is that of PSMA01012 and the anti-CD3 domain is DRA222; also called unoptimized parent construct; TSC266 control (PSMA × CD3 bispecific protein)) DIQMTQSPSAMSASVGDRVTITCRASKSISKYLAWFQQKPGKVPKLRIHSGSTLQSGVPSRFSGSGSGTEFTLTISSLQPEDFATYYCQQHIEYPWTFGQGTKVEIKRGGGGSGGGGSGGGGSQVQLVQSGAEVKKPGASVKVSCKASGYTFTDYYMHWVRQAPGQGLEWMGYFNPYNDYTRYAQKFQGRVTMTRDTSISTAYMELSSLRSDDTAVYYCARSDGYYDAMDYWGQGTTVTVSSSEPKSSDKTHTCPPCPAPEAAGAPSVFLFPPKPKDTLMISRTPEVTCVVVDVSHEDPEVKFNWYVDGVEVHNAKTKPREEQYNSTYRVVSVLTVLHQDWLNGKAYACAVSNKALPAPIEKTISKAKGQPREPQVYTLPPSRDELTKNQVSLTCLVKGFYPSDIAVEWESNGQPENNYKTTPPVLDSDGSFFLYSKLTVDKSRWQQGNVFSCSVMHEALHNHYTQKSLSLSPGQRHNNSSLNTGTQMAGHSPNSQVQLVESGGGVVQPGRSLRLSCKASGYTFTRSTMHWVRQAPGQGLEWIGYINPSSAYTNYNQKFKDRFTISADKSKSTAFLQMDSLRPEDTGVYFCARPQVHYDYNGFPYWGQGTPVTVSSGGGGSGGGGSGGGGSAQDIQMTQSPSSLSASVGDRVTMTCSASSSVSYMNWYQQKPGKAPKRWIYDSSKLASGVPARFSGSGSGTDYTLTISSLQPEDFATYYCQQWSRNPPTFGGGTKLQITSSS |
| 19900 | 2.6 | 59 | – | – | – | PSMA01107 Anti-PSMA scFv x Fc x linker x Anti CD3 scFv; Anti PSMA scFv x Fc (bispecific antibody, Heterodimer, bivalent for PSMA and monovalent for CD3 (VH-VL scFv at the C-terminus); also called PSMA1107) chain 1: QVQLVQSGAEVKKPGASVKVSCKASGYTFTDYYMHWVRQAPGQGLEWMGYFNPYNDYTRYAQKFQGRVTMTRDTSTSTVYMELSSLRSEDTAVYYCARSDGYYDAMDYWGQGTTVTVSSGGGGSGGGGSGGGGSGGGGSDIQMTQSPSSLSASVGDRVTITCRASKSISKYLAWYQQKPGKAPKLLIHSGSSLESGVPSRFSGSGSGTEFTLTISSLQPDDFATYYCQQHIEYPWTFGQGTKVEIKEPKSSDKTHTCPPCPAPPAAAPSVFLFPPKPKDTLMISRTPEVTCVVVDVSHEDPEVKFNWYVDGVEVHNAKTKPREEQYNSTYRVVSVLTVLHQDWLNGKEYKCAVSNKALPAPIEKTISKAKGQPREPQVYTLPPSRDELTKNQVSLWCLVKGFYPSDIAVEWESNGQPENNYKTTPPVLDSDGSFFLYSKLTVDKSRWQQGNVFSCSVMHEALHNHYTQKSLSLSPGGGGSPSQVQLVQSGAEVKKPGASVKVSCKASGYTFTRSTMHWVRQAPGQGLEWIGYINPSSAYTNYAQKFQGRVTLTADKSTSTAYMELSSLRSEDTAVYYCASPQVHYDYNGFPYWGQGTLVTVSSGGGGSGGGGSGGGGSGGGGSDIQMTQSPSSLSASVGDRVTITCRASSSVSYMNWYQQKPGKAPKRWIYDSSKLASGVPSRFSGSGSGTDFTLTISSLQPEDFATYYCQQWSRNPPTFGQGTKVEIKRS chain 2: QVQLVQSGAEVKKPGASVKVSCKASGYTFTDYYMHWVRQAPGQGLEWMGYFNPYNDYTRYAQKFQGRVTMTRDTSTSTVYMELSSLRSEDTAVYYCARSDGYYDAMDYWGQGTTVTVSSGGGGSGGGGSGGGGSGGGGSDIQMTQSPSSLSASVGDRVTITCRASKSISKYLAWYQQKPGKAPKLLIHSGSSLESGVPSRFSGSGSGTEFTLTISSLQPDDFATYYCQQHIEYPWTFGQGTKVEIKEPKSSDKTHTCPPCPAPPAAAPSVFLFPPKPKDTLMISRTPEVTCVVVDVSHEDPEVKFNWYVDGVEVHNAKTKPREEQYNSTYRVVSVLTVLHQDWLNGKEYKCAVSNKALPAPIEKTISKAKGQPREPQVYTLPPSRDELTKNQVSLSCAVKGFYPSDIAVEWESNGQPENNYKTTPPVLDSDGSFFLVSKLTVDKSRWQQGNVFSCSVMHEALHNHYTQKSLSLSPG |
| – | – | 27 | binds | binds | binds | PSMA01108 Anti-PSMA scFv x Fc x linker x Anti CD3 scFv; Anti PSMA scFv x Fc (bispecific antibody, also called PSMA1108; PSAM01108) chain 1: QVQLVQSGAEVKKPGASVKVSCKASGYTFTDYYMHWVRQAPGQGLEWMGYFNPYNDYTRYAQKFQGRVTMTRDTSTSTVYMELSSLRSEDTAVYYCARSDGYYDAMDYWGQGTTVTVSSGGGGSGGGGSGGGGSGGGGSDIQMTQSPSSLSASVGDRVTITCRASKSISKYLAWYQQKPGKAPKLLIHSGSSLESGVPSRFSGSGSGTEFTLTISSLQPDDFATYYCQQHIEYPWTFGQGTKVEIKEPKSSDKTHTCPPCPAPPAAAPSVFLFPPKPKDTLMISRTPEVTCVVVDVSHEDPEVKFNWYVDGVEVHNAKTKPREEQYNSTYRVVSVLTVLHQDWLNGKEYKCAVSNKALPAPIEKTISKAKGQPREPQVYTLPPSRDELTKNQVSLWCLVKGFYPSDIAVEWESNGQPENNYKTTPPVLDSDGSFFLYSKLTVDKSRWQQGNVFSCSVMHEALHNHYTQKSLSLSPGGGGSPSDIQMTQSPSSLSASVGDRVTITCRASSSVSYMNWYQQKPGKAPKRWIYDSSKLASGVPSRFSGSGSGTDFTLTISSLQPEDFATYYCQQWSRNPPTFGQGTKVEIKGGGGSGGGGSGGGGSGGGGSQVQLVQSGAEVKKPGASVKVSCKASGYTFTRSTMHWVRQAPGQGLEWIGYINPSSAYTNYAQKFQGRVTLTADKSTSTAYMELSSLRSEDTAVYYCASPQVHYDYNGFPYWGQGTLVTVSS chain 2: QVQLVQSGAEVKKPGASVKVSCKASGYTFTDYYMHWVRQAPGQGLEWMGYFNPYNDYTRYAQKFQGRVTMTRDTSTSTVYMELSSLRSEDTAVYYCARSDGYYDAMDYWGQGTTVTVSSGGGGSGGGGSGGGGSGGGGSDIQMTQSPSSLSASVGDRVTITCRASKSISKYLAWYQQKPGKAPKLLIHSGSSLESGVPSRFSGSGSGTEFTLTISSLQPDDFATYYCQQHIEYPWTFGQGTKVEIKEPKSSDKTHTCPPCPAPPAAAPSVFLFPPKPKDTLMISRTPEVTCVVVDVSHEDPEVKFNWYVDGVEVHNAKTKPREEQYNSTYRVVSVLTVLHQDWLNGKEYKCAVSNKALPAPIEKTISKAKGQPREPQVYTLPPSRDELTKNQVSLSCAVKGFYPSDIAVEWESNGQPENNYKTTPPVLDSDGSFFLVSKLTVDKSRWQQGNVFSCSVMHEALHNHYTQKSLSLSPG |

Reference: US20240301086A1 (APTEVO RESEARCH AND DEVELOPMENT, published 2024)
